Experimental data: patent publication JP2008058208A

Target: T1, C−反応性タンパク(CRP), ヒトCRP抗原 (human) (UniProt P02741)
T1 sequence (looked up): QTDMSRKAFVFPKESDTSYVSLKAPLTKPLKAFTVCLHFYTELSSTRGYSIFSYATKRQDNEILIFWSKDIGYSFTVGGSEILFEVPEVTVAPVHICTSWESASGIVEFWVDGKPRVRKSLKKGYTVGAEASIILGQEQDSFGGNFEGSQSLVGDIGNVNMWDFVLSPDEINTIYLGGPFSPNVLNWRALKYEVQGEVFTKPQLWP
Test: sandwich immunochromatography, His20 as capture and as gold-colloid label, read by eye after 15 min

B1: 抗CRPscFv抗体No.20 (His-tagged scFv, His20) (scFv, not shown: small tags and cut ends)
scFv: MAQVKLPESGAELVKPGASVKLSCTPSGFNIKDTYIHWVRQRPGQGLEWIGRIDPANGHTRYAPKFQGKATLTADASSNTAYLHLSSLTSEDTAVYYCPRIVWYSGGYAMDYWGQGTTVTVSSGGGGSGGGGSGGGGSDIELTQSPSSMYASLGERVTITCKASQDINSYLSWFQQKPGKSPKTLIYRANRLVDGVPSRFSGSGSGQDYSLTISSLKYEDMGIYYCLQYDEFPLTFGGGTKLEIKRAA
- lowest detectable CRP concentration: 1 ng/mL
